Laboratory results taken from patent US10787640B2, “Producing mesodermal cell types and methods of using the same” (The Board of Trustees of the Leland Stanford Junior …, priority 2015, dated 2020).

Key:
Assay type in all cases: cell-based, human
[1] = system: hESC-derived lateral mesoderm; experiment: Lateral mesoderm patterning, qPCR
Procedure: Subsequently, day 1 anterior primitive streak was briefly washed (DMEM/F12) and differentiated towards day 2 paraxial mesoderm for 24 hours (1 μM A-83-01+3 μM CHIR99021+250 nM LDN-193189+20 ng/mL FGF2). Separately, day 1 mid primitive streak was differentiated towards day 2 lateral mesoderm for 24 hours (1 μM A-83-01+30 ng/mL BMP4+1 μM C59; with 2 μM SB-505124 sometimes used instead of A-83-01).
C) To reveal the possible identity of non-cardiac mesoderm lineages that were contaminating cardiac mesoderm-containing cultures, NKX2.5-GFP hESCs were differentiated towards mid primitive streak (day 1) and were differentiated towards a heterogeneous population containing cardiac mesoderm (day 3) by treatment with SB-505124+BMP4+C59 (without FGF2) on days 2-3 of differentiation. FACS was performed on day 3 to purify either NKX2.5-GFP^+ or NKX2.5-GFP^− cells (top subpanels) which were sorted for qPCR (bottom subpanels). Gene expression was normalized to expression of a gene in the NKX2.5-GFP^+ fraction (dotted line). D) Timecourse of gene expression in hESCs differentiating towards mid primitive streak and lateral mesoderm, with treatment by SB-505124+BMP4+C59 on days 2-3 of differentiation. […] G) To assess whether a stabilized vitamin C analog (ascorbic acid-2-phosphate) (AA2P) enhanced cardiac mesoderm differentiation into cardiomyocytes, day 4 hESC-derived cardiac mesoderm was exposed to BMP4 (30 ng/mL)+XAV939 (1 μM) for 48 hours in the presence or absence of 200 μg/mL AA2P and qPCR was conducted of day 6 populations; qPCR data were normalized such that expression values in the highest-expressing sample was normalized=1.0. […] J) In the mouse embryo, endocardium (progenitors to heart-affiliated endothelium) are marked by transient coexpression of pan-heart marker Nkx2.5 together with endothelial markers (Ferdous et al., 2009; Stanley et al., 2002).

[2] = system: day 3 hemogenic precursors; experiment: Hemogenic precursors into day 5 hematopoietic intermediates; details: withdrawal of the factor from BMP, VEGF, XAV939, TTNPB
Procedure: (§1) SOX17^mCherry/+ H9 hESCs (referred to as SOX17-mCherry hESCs throughout this study) were routinely propagated in mTeSR1 (StemCell Technologies)+1% penicillin/streptomycin. They were passaged ˜1:12-1:25 as fine clumps using Accutase (Gibco) onto plates precoated with a Geltrex substratum (Gibco) in mTeSR1 medium supplemented with thiazovivin ([…]; a ROCK inhibitor). After overnight plating, hESCs were washed (DMEM/F12) and differentiated towards posterior PS using BMP4 (15-40 ng/mL, R&D Systems), CHIR99021 ([…]), FGF2 (20 ng/mL, Invitrogen) and PIK90 (100 nM, Calbiochem) for 24 hours, with the optional inclusion of Activin (30 ng/mL, R&D Systems) to induce mid PS. Day 1 mid or posterior PS was subsequently washed (DMEM/F12) and further differentiated using BMP4 (40 ng/mL), GDC-0941 (0.25-2.5 μM, Cellagen Technology), Forskolin (10 μM, Tocris), SB-505124 ([…]), VEGF (100 ng/mL, R&D Systems), XAV939 (1 μM, Tocris) and ascorbic acid-2-phosphate (200 μg/mL, Sigma) for 24 hours. Day 2 cultures were further directed into the definitive hematopoietic lineage/hemogenic precursors by Activin A (15 ng/mL), GDC-0941 (0.25-2.5 μM), VEGF (100 ng/mL), XAV939 (1 μM) and ascorbic acid-2-phosphate (200 μg/mL) for 24 hours. Day 3 definitive hematopoietic progenitors were subsequently differentiated into early Runx1^lowGfi1^low hemogenic intermediates through day 4-5 treatment with BMP4 (50 ng/mL), TTNPB (500 nM), VEGF (100 ng/mL) and XAV939 (1 μM) for 48 hours, supplemented with SB-505124 (2 μM) on day 5. Day 5 populations were then dissociated into single cells, counted and reaggregated in individual wells of a low-adhesion V-bottom or U-bottom 96-well plate (e.g., Thermo Fisher, catalog no. 249952) with ˜15,000-20,000 cells seeded per well. Aggregates were cultured for 48 additional hours until day 7 in BMP4 (50 ng/mL), TTNPB (500 nM), VEGF (100 ng/mL), XAV939 (1 μM), SB-505124 (2 μM), SCF (25-50 ng/mL, R&D Systems), IL6 (10 ng/mL, R&D Systems) and IL6RA (250-1000 ng/mL, R&D Systems). All differentiation was conducted in serum-free CDM2 fully-defined basal media.

SOX17-mCherry hESCs = experiment: Hematopoietic mesoderm and SOX17+CD34+ hemogenic precursor specification
Procedure: as §1

**Q.** `Cc1cnc(-c2cnc(NCCNc3ccc(C#N)cn3)nc2-c2ccc(Cl)cc2Cl)[nH]1` [CHIR99021, 6-[[2-[[4-(2,4-Dichlorophenyl)-5-(5-methyl-1H-imidazol-2-yl)-2-pyrimidinyl]amino]ethyl]amino]-3-pyridinecarbonitrile] was tested. Which “lateral mesoderm fate (qPCR)” value ([1]; day 2 lateral mesoderm, SB-505124+BMP4 with CHIR99021 or C59, 24 hours) did it give?
**A.** specified a posterior lateral mesoderm/forelimb bud fate (PRRX1)

**Q.** And the “pan-lateral mesoderm marker FOXF1 expression” value ([1]; last 12 hrs C59 or 3 μM CHIR in addition to BS)?
**A.** not markedly changed

B1: BMP4: BMP family ligand, BMP agonist (protein, UniProt P12644 293-408, looked up)
Bone morphogenetic protein 4: SPKHHSQRARKKNKNCRRHSLYVDFSDVGWNDWIVAPPGYQAFYCHGDCPFPLADHLNSTNHAIVQTLVNSVNSSIPKACCVPTELSAISMLYLDEYDKVVLKNYQEMVVEGCGCR
**Q.** For B1, which “RUNX1 expression by day 5” value [2] is on record?
**A.** crippled RUNX1 expression

B2: Activin: TGFβ agonist (protein, UniProt P08476 311-426, looked up)
Inhibin beta A chain: GLECDGKVNICCKKQFFVSFKDIGWNDWIIAPSGYHANYCEGECPSHIAGTSGSSLSFHSTVINHYRMRGHSPFANLKSCCVPTKLRPMSMLYYDDGQNIIKKDIQNMIVEECGCS
modifications: Inhibin beta A chain
notes: TGFβ agonist
**Q.** For B2, which “downstream ability to acquire hematopoietic fate” value (SOX17-mCherry hESCs; Activin 30 ng/mL during PS induction) is on record?
**A.** significantly enhanced the downstream ability of cells to acquire hematopoietic fate

**Q.** And the “SOX17+ cells formed by day 3” value (SOX17-mCherry hESCs; treatment on day 2-3, 24 hours)?
**A.** doubled the generation of SOX17^+ cells
